Measured values from publication PMC9463131, “SLITRK1-mediated noradrenergic projection suppression in the neonatal prefrontal cortex” (Communications Biology, 2022).
Several values for one entry are separate records, joined by “and”; a condition that tells them apart may be missing. Identical values can stand only once.

Experiments:
human PTPRD ECD-His6 = molecular target: T1, human PTPRD ECD-His6 (human, UniProt P23468 21-1265); assay: quartz crystal microbalance; SLITRK1 ECD-Fc (about 200 fmol) immobilised on the 27 MHz gold resonator through anti-human IgG Fc-HRP; ECD-His6 proteins added in solution; 50 mM Tris-HCl pH 7.6, 15 mM NaCl, 140 mM KCl, 0.5 mM MgCl2, 2 mM CaCl2; 25 ± 1 °C; kon and koff from 1/τ against concentration, KD = koff/kon; each sheet row is one experiment; settings: both partners purified
T1 construct: human PTPRD (receptor-type protein tyrosine phosphatase delta) extracellular domain; No catalogue number printed; also called PTPRδ; source: bought: ACROBiosystems
T1 sequence (looked up): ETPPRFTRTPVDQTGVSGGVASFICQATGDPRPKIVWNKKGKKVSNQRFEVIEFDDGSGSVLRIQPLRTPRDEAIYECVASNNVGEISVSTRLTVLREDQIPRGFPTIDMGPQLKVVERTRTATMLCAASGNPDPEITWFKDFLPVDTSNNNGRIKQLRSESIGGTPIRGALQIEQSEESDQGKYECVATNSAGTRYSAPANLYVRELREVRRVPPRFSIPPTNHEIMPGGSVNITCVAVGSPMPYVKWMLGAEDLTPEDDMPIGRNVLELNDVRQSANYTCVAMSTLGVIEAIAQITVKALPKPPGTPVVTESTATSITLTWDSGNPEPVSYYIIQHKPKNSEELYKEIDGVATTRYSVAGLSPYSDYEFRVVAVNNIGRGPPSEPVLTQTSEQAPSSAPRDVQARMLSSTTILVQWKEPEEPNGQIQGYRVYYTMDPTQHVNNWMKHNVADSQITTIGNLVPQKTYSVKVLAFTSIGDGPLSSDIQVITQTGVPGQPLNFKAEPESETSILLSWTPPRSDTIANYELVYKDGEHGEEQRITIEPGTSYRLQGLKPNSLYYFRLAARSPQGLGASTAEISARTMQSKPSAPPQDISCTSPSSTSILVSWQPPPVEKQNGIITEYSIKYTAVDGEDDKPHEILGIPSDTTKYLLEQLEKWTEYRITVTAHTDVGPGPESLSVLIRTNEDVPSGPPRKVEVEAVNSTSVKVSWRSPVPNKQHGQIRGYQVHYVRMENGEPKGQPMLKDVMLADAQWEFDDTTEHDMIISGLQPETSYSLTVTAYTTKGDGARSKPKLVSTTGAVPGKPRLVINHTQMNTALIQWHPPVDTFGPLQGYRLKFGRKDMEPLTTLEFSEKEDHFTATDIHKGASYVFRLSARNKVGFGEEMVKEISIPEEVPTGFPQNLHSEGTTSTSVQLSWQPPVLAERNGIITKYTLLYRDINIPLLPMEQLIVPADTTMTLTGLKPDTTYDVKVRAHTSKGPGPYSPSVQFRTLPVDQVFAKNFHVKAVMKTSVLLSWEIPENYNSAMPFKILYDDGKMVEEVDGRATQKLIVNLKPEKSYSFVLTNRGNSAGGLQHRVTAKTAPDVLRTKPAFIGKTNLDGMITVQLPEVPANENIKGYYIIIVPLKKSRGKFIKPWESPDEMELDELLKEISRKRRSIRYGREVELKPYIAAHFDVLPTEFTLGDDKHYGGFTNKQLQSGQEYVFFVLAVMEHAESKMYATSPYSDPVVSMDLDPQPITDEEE

[1] = molecular target: human Neurofascin ECD-His6 (human, UniProt O94856 25-1217, Mammalian-expressed glycoprotein is likely. C-terminal His6 tag omitted. The limits are not printed. The paper names catalogue 8208-NF-050 as Neurofascin 155, so the chain runs from after the signal p); assay: as above; settings: both partners purified

- Kd (human PTPRD ECD-His6): 110 nM and 202 nM and 144 nM
- koff (human PTPRD ECD-His6): 0.00348 s⁻¹ and 0.00358 s⁻¹ and 0.00347 s⁻¹
- kon (human PTPRD ECD-His6): 31600 M⁻¹ s⁻¹ and 17700 M⁻¹ s⁻¹ and 24100 M⁻¹ s⁻¹
- Kd [1]: 18.7 nM and 15.5 nM and 15.7 nM
- koff [1]: 0.00278 s⁻¹ and 0.00247 s⁻¹ and 0.00243 s⁻¹
- kon [1]: 154000 M⁻¹ s⁻¹ and 149000 M⁻¹ s⁻¹ and 159000 M⁻¹ s⁻¹
B1: SLITRK1 ECD-immunoglobulin Fc domain-fusion protein (SLITRK1-WT-Fc) (Fc fusion, human, UniProt Q96PX8 18-616, looked up)
chain: NVTGDVCKEKICSCNEIEGDLHVDCEKKGFTSLQRFTAPTSQFYHLFLHGNSLTRLFPNEFANFYNAVSLHMENNGLHEIVPGAFLGLQLVKRLHINNNKIKSFRKQTFLGLDDLEYLQADFNLLRDIDPGAFQDLNKLEVLILNDNLISTLPANVFQYVPITHLDLRGNRLKTLPYEEVLEQIPGIAEILLEDNPWDCTCDLLSLKEWLENIPKNALIGRVVCEAPTRLQGKDLNETTEQDLCPLKNRVDSSLPAPPAQEETFAPGPLPTPFKTNGQEDHATPGSAPNGGTKIPGNWQIKIRPTAAIATGSSRNKPLANSLPCPGGCSCDHIPGSGLKMNCNNRNVSSLADLKPKLSNVQELFLRDNKIHSIRKSHFVDYKNLILLDLGNNNIATVENNTFKNLLDLRWLYMDSNYLDTLSREKFAGLQNLEYLNVEYNAIQLILPGTFNAMPKLRILILNNNLLRSLPVDVFAGVSLSKLSLHNNYFMYLPVAGVLDQLTSIIQIDLHGNPWECSCTIVPFKQWAERLGSEVLMSDLKCETPVNFFRKDFMLLSNDEICPQLYARISPTLTSHSKNSTGLAETGTHSNSYLDTSRVS
notes: signal peptide in the construct; human SLITRK1 extracellular domain, amino acid number 1-616 in NP_443142; Held on the resonator through anti-human IgG Fc; also called SLITRK1 ECD-Fc
